Test results: publication PMC8373119

Tests used:
[1] = target: ΔEGF/Lam_Celsr3 (mouse Celsr3-Flag lacking all the EGF repeats and laminin domains) (mouse) (UniProt Q91ZI0); assay: co-IP
[2] = target: ΔLaminin G1_Celsr3 (mouse Celsr3-Flag lacking the laminin G1 domain) (mouse) (UniProt Q91ZI0); assay: co-IP

- percent reduction of the interaction against wild-type Celsr3 [1]: 68%
- percent reduction of the interaction against wild-type Celsr3 [2]: 66%
B1: mouse Frizzled3 (Frizzled3-HA) (receptor)
chain: HSLFSCEPITLRMCQDLPYNTTFMPNLLNHYDQQTAALAMEPFHPMVNLDCSRDFRPFLCALYAPICMEYGRVTLPCRRLCQRAYSECSKLMEMFGVPWPEDMECSRFPDCDEPYPRLVDLNLVGDPTEGAPVAVQRDYGFWCPRELKIDPDLGYSFLHVRDCSPPCPNMYFRREELSFARYFIGLISIICLSATLFTFLTFLIDVTRFRYPERPIIFYAVCYMMVSLIFFIGFLLEDRVACNASSPAQYKASTVTQGSHNKACTMLFMVLYFFTMAGSVWWVILTITWFLAAVPKWGSEAIEKKALLFHASAWGIPGTLTIILLAMNKIEGDNISGVCFVGLYDVDALRYFVLAPLCLYVVVGVSLLLAGIISLNRVRIEIPLEKENQDKLVKFMIRIGVFSILYLVPLLVVIGCYFYEQAYRGIWETTWIQERCREYHIPCPYQVTQMSRPDLILFLMKYLMALIVGIPSIFWVGSKKTCFEWASFFHGRRKKEIVNESRQVLQEPDFAQSLLRDPNTPIIRKSRGTSTQGTSTHASSTQLAMVDDQRSKAGSVHSKVSSYHGSLHRSRDGRYTPCSYRGMEERLPHGSMSRLTDHSRHSSSHRLNEQSRHSSIRDLSNNPMTHITHGTSMNRVIEEDGTSA
